Patent US20040053349A1, “Direct selection of protein complexes relevant to physiological or diagnostic context of a biological specimen” (priority 2000, published 2004)

Test system: trypsin
Assay: Trypsin treatment of enzyme-spiked dialyzed human serum with or without ligand solutions, then residual enzyme activity assay
Type: biochemical
Conditions: for Relative residual activity [percent of untreated], LSA: LSA (ATP, XMP, CMP, NADP, NADPH) added before treatment with trypsin; for Relative residual activity [percent of untreated], LSA + LSB: LSA and LSB both added before treatment with trypsin; for Relative residual activity [percent of untreated], LSB: LSB (glucose, L-aspartic acid, D,L-asparagine, creatine, D,L-glyceraldehyde-3-P) added before treatment with trypsin
Experimental: 2. Ligand solutions (LS) are composed as follows:
One) ATP, XMP, CMP, NADP and NADPH are included in ligand solution LSA; and
Two) Glucose, L-aspartic acid, D,L-asparagine, creatine, D,L-glyceraidehyde-3-P are included in ligand solution LSB.
2. The serum is treated with trypsin in the absence and presence of LSA or LSB, or both. At the end of the treatment samples are assayed for enzyme activity. For details see Table 1.

Molecule | Relative residual activity [percent of untreated], LSA | Relative residual activity [percent of untreated], LSA + LSB | Relative residual activity [percent of untreated], LSB
Asparaginase | 9% of untreated | 90% of untreated | 89% of untreated
Ribonuclease A: enzyme preparation spiked into dialyzed serum sample (protein, UniProt P61823 27-150, looked up) Ribonuclease pancreatic: KETAAAKFERQHMDSSTSAASSSNYCNQMMKSRNLTKDRCKPVNTFVHESLADVQAVCSQKNVACKNGQTNCYQSYSTMSITDCRETGSSKYPNCAYKTTQANKHIIVACEGNPYVPVHFDASV | 93% of untreated | 93% of untreated | 11% of untreated
